Test [1] has as its target SDS22-KR7A (purified) (human) (UniProt Q15435). As to the kind of experiment: ITC; 5 μM SDS22 in the cell titrated with 50 μM His-I3 (20 injections), 22 °C, MicroCal iTC200; binding curves not saturated. A general note: Isothermal titration calorimetry measures the heat released or taken up as one component is titrated into another.
For a further test, the target named is LgBiT-PP1α (UniProt P62136). As to the kind of experiment: lysate-based split-luciferase complementation. To be noted: mixed HEK293T lysates; signals normalized for the same expression level; n = 3; parent: est. 100; read off a plot.
In another test the target is EGFP-I3-DE4A (human) (UniProt O60927). The test is described as follows: co-IP; EGFP-trap (anti-EGFP nanobodies on agarose, 2 h, 4 °C) of transiently expressed EGFP fusions from HEK293T lysates (20 mM Tris pH 7.9, 0.3 M NaCl, 0.5% Triton X-100); endogenous partners by immunoblot.

Kd, percent of parent (% of RIPPOs^WT-SmBiT) and percent decrease of binding against EGFP-I3-WT data for five substances are collected here from article PMC11199634.

pKd: −log10 of the molar value.

LgBiT-PP1α, sequence (P62136 whole entry, the tested form may be a part): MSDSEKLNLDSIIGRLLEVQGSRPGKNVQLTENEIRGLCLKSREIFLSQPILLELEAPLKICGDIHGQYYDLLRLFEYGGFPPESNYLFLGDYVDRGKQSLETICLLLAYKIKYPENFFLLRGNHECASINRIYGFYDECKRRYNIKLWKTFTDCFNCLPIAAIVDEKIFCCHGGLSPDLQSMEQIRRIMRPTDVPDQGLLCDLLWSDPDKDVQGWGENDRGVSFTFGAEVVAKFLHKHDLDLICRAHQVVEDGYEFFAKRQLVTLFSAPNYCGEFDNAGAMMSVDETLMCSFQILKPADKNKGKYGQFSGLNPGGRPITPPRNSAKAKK
RM-SmBiT, sequence (Q69YH5 whole entry, change not shown): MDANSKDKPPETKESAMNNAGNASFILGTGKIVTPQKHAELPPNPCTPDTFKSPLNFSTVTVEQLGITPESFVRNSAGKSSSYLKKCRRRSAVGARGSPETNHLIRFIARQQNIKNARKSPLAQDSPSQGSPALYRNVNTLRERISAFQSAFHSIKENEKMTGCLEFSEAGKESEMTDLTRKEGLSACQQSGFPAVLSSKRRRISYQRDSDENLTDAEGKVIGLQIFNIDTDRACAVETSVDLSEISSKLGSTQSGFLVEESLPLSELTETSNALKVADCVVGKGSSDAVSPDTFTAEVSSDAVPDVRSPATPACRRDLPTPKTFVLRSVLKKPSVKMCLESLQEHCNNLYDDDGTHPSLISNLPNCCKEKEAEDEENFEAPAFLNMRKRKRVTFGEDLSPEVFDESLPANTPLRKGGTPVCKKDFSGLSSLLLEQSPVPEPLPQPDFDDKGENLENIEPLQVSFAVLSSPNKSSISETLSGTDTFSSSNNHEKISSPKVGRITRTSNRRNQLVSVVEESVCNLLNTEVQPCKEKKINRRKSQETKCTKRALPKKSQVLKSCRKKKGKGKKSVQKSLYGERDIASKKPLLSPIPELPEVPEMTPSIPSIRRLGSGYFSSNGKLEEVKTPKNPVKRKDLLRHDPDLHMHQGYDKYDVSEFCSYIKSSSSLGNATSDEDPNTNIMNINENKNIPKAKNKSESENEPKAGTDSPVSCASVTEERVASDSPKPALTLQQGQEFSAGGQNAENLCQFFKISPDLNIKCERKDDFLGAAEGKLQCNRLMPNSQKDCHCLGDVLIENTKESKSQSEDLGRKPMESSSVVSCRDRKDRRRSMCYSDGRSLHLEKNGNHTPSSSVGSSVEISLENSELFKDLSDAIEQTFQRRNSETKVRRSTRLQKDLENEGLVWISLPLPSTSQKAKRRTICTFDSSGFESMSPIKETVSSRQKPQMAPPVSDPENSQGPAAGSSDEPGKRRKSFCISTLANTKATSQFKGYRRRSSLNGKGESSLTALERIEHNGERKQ
PP1 (endogenous, HEK293T), sequence (P62136 whole entry): as the sequence (P62136 whole entry, the tested form may be a part) above
I2-SmBiT, sequence (P41236 whole entry, change not shown): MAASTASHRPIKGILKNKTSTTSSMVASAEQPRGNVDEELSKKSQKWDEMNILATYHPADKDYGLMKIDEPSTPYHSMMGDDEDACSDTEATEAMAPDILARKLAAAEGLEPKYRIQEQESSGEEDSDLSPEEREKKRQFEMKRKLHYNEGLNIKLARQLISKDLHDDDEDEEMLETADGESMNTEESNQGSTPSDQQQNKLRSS
SDS22-KR7A (purified) (human), sequence (Q15435 whole entry): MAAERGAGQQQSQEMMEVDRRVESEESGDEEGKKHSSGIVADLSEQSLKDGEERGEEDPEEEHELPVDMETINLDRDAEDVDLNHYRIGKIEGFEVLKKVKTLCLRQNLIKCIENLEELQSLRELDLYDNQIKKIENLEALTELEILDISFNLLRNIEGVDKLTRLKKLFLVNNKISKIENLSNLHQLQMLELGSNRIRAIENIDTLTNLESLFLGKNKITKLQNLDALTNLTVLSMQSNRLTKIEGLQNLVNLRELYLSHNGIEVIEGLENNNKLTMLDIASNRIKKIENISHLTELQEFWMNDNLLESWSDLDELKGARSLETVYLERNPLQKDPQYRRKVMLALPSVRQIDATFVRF
EGFP-I3-DE4A (human), sequence (O60927 whole entry, the tested form may be a part): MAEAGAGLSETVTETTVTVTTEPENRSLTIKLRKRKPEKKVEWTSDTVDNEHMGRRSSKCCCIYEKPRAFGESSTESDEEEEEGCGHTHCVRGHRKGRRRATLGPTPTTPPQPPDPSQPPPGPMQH
I3^WT-SmBiT, sequence (O60927 whole entry, change not shown): as the sequence (O60927 whole entry, the tested form may be a part) above
His-I3, sequence (O60927 whole entry): as the sequence (O60927 whole entry, the tested form may be a part) above

Regarding “His-I3 (from UniProt O60927 1-126) (natural protein)”, in test [1], the pKd (commonly the negative decadic logarithm of the Kd, by convention in mol/L) is 3.89.

Turning to I2-SmBiT (from UniProt P41236) RATA, the percent of parent (% of RIPPOs^WT-SmBiT) with LgBiT-PP1α worked out at 32.

I3^WT-SmBiT (from UniProt O60927) RATA: the percent of parent (% of RIPPOs^WT-SmBiT) in the test with LgBiT-PP1α turned out to be 6.

Regarding “PP1 (endogenous, HEK293T) (from UniProt P62136 1-330) (enzyme)”, the percent decrease of binding against EGFP-I3-WT with EGFP-I3-DE4A (human) was determined as 35%.

On to RM-SmBiT (from UniProt Q69YH5) RATA, for which the percent of parent (% of RIPPOs^WT-SmBiT) with LgBiT-PP1α was 10.
